According to US20090081211A1 (Genentech, published 2009):

Biological target: T1, human complement C3 (human, UniProt P01024 23-1663)
T1 construct: also called native C3; pro-molecule C3
Assay: ELISA on purified C3b or C3 (FIG. 8)
Method: In another experiment, purified C3b or C3 were captured in microtiter plates using a polyclonal C3 antibody. Binding of S77 (A) or a polyclonal anti C3 antibody (B) to captured C3b or C3 was determined using a secondary HRPO-conjugated antibody. Color was developed with TMB (KPL), stopped in 2N H₂SO₄ and absorbance read at 450 nm.
C3b ELISA for testing specificity of anti C3b antibody S77. Twenty-five μL of capture antibody (YW144.2.45.S77 Affinity Matured xC3/C3b (Genentech) 2 μg/ml) diluted in PBS was added to wells of a microtitre plate and incubated overnight at 4° C. The plate was washed 3× with wash buffer (PBS/0.05% Tween 20 (20× stock; Media Prep; Cat. A3355)). Fifty μL of block buffer was added to the wells and the plate incubated for 1-3 hours with gentle agitation (room temperature) and washed 3× with wash buffer. […] OD reading of plate was taken (450/630 nm). […]

T1 sequence (P01024 other isoform, or with tags, fused parts or gaps limits assumed): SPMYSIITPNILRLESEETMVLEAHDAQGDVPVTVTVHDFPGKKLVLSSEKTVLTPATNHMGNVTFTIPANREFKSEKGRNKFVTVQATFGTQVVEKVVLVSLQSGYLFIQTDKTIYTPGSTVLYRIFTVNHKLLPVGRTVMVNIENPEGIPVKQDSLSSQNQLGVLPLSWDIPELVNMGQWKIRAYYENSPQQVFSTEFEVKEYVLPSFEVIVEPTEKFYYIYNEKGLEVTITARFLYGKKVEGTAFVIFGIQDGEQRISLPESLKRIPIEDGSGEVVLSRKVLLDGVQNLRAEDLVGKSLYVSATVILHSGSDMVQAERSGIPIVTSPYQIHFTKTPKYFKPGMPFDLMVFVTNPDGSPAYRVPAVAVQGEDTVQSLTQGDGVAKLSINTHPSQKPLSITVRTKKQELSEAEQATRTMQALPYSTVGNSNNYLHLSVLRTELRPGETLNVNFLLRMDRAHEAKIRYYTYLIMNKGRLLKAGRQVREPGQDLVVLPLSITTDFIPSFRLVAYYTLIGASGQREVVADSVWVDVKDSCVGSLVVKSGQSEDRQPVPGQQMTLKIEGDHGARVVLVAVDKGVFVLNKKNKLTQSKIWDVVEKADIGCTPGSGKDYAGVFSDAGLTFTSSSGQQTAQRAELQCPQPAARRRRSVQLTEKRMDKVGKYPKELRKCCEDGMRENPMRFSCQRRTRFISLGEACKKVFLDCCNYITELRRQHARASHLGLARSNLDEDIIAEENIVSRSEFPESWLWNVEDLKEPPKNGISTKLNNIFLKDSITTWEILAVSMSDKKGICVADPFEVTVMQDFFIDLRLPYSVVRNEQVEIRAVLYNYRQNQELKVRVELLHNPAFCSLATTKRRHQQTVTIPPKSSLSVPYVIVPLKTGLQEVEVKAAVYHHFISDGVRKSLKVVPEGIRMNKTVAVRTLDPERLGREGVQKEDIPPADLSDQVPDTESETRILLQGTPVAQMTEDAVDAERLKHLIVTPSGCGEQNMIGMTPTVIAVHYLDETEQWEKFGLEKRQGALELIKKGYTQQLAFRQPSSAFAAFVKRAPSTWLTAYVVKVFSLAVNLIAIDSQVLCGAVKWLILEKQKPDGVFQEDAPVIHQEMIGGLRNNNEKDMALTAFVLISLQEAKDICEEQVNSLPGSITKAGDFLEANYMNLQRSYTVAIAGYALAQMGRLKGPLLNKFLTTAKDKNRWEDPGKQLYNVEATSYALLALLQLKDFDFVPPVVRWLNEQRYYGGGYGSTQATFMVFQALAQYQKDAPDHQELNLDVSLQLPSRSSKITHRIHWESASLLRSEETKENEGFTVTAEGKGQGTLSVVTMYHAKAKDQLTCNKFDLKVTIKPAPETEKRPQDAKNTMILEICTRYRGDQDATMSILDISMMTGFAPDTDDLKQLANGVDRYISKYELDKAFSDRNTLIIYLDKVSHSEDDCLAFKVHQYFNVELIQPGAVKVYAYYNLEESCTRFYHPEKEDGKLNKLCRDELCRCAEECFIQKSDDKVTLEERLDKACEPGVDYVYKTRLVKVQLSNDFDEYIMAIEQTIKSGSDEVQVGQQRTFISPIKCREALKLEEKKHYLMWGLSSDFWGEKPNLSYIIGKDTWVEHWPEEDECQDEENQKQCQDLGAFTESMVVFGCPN

binding result: no binding
B1: antibody S77 (YW144.2.43.S77), format in the assay not stated (antibody, V domains shown)
VH: EVQLVESGGGLVQPGGSLRLSCAASGFSFTSSSVSWVRQAPGKGLEWVGLIYPYNGFNYYADSVKGRFTISADTSKNTAYLQMNSLRAEDTAVYYCARNALYGSGGYYAMDYWGQGTLVTVSS
VL: DIQMTQSPSSLSASVGDRVTITCRASQDVSTAVAWYQQKPGKAPKLLIYSASFLYSGVPSRFSGSGSGTDFTLTISSLQPEDFATYYCQQSYATLPTFEQGTKVEIK
notes: also called anti C3b antibody S77
